Data as given in the RNAGym collection of RNA variant scans (doi:10.1073/pnas.2313332121).

B1: TPR t1 (parent)
chain: GACCAAUCUGCCCUCAGAGCUCGAGAACAUCUUCGGAUGCAGAGGAGGCAGGCUUCGGUGGCGCGAUAGCGCCAACGUCCUCAACCUCCAAUGCAUCCCACCACAUGAUGAUGCCUGAAGAGCCUUGGUUUUUUG

Variants of: B1
Experiment: polymerase ribozyme fitness, log enrichment relative to wild type (log ratio); higher = more active; in vitro selection for triplet polymerase activity
How it was run: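 Each subunit of a heterodimeric triplet polymerase ribozyme was represented by a PCR-built, transcribed mutant library that underwent triplicate single-round in vitro selection with frozen incubation at −7 °C. Extended constructs were recovered by gel excision, streptavidin-bead capture and RT-PCR, and Illumina sequencing of input and output libraries kept genotypes with ≥10 input reads and ≥1 read per output. Fitness is the logarithm of genotype enrichment relative to wild-type enrichment, from inverse-variance-weighted replicate averages, with a logarithm base of 2.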

Row | Variant | polymerase ribozyme fitness (log ratio)
1 | GACCAAUCUGACCUCAGAGCUCGAGAACAUCUUCGGAUACAGUGGAGGCAGGCUUCGGCGGCGCGAUAGCGCCAACGUCCUCAACCUCCACUGCAUCCCACCACAUGAUGAUACCUGGAGAGCGAUGGUUUUUUG [C11A G39A A43U U59C A91C G113A A118G C124G U125A] | -4.98
2 | GACCAAUCUGCCCUCAGAGCUCGGGAACAUCUUCGGAUGCAGAGGAGGCAGGCUUCGGUGGCGCGAUAACGCCAACGUCCUAAACCUCCAAUGCCUCCCACCACAUGAUGAUGCCUGAAAAGCCUUGGUUUUUUG [A24G G69A C82A A95C G120A] | -4.87
3 | GACCAAUCUGCCCUCAGAGCUCGAGAACAUCUUCGGAUGCAGAGGAGGCAGGCUUCGGGGGCGCGAUAGCGUCAACGUCCUCAACAUCCAAUGCAUCCCACCACAUGAUGAUGCCUGAAGAGCCUUGGUUUUUUG [U59G C72U C86A] | -2.04
4 | GACCAAUGUGCCCUCAGAGCUCGAGAACAUCUUCGGAUGCAGAGGAGGCAGGCUUCGGUGGCCCGAUAGCGCCAACGUCCUCAACCUCCAAAGCAUCCCACCACAUGAUGAUGCCUGAAGAGCCUUGGUUUUUUG [C8G G63C U92A] | -3.28
5 | GACCAAUCUGCCCUCAGAGCUCGAGAACAUCUUCGGAUGCAGAGGAGGCAGGCUUCGGUGGAGCGAUAGCGCCAACGUCCUCAACCUCCAAUGCAUCCCACCACAUGAUGAUGCCUGACGAGUCUUGGUUUUUUG [C62A A119C C123U] | -2.98
6 | GACCAAUCUGCCCUCAGAGCUCGAGAACAUCUUCGGAUGCAGAGGAGGCAGUCUUCGGUGGCGCGAUAGCGCCAACGUCCUCAACCUCCAAUGCAUCCCACCACAUGAUGAUGCCUCAAGAGCCUUGGUUUUUUG [G52U G117C] | -5.35
7 | GACCAAUCUGCCCUCAGAGCUCGAGAACAUCUUCGGGUGCAGAGGAGGCAGGCUUCGGUGGCGCGAUAUCGCCAACGUCCUCAACCUCGAAUGCAUCCCACCACAUGAUGAUGCCUGAAGAGCCUUGGUUUUUUG [A37G G69U C89G] | -2.64
8 | GACCAAUCUGCACUCAGAGCUCGAGAACAUCUUCGGAUGCAGAGGAGGCAUGCUUCGGUGGCGCGAUAGCGCCAACGUCCUCAACCUCCGAUGCAUCCCACCACAUGAUGAUGCCUGAAGAGCCUUGGUUUUUUG [C12A G51U A90G] | -2.76
9 | GACCUAUCUGCCCUCAGCGCUCGAGAACAUCUUCGGAUGCAGAGGAGGCAGGCUUCGGUGGCGCGAUAGCGCCAACGUCCUCAACCUCCAAUGCAUCCCACCACAUGAUGAUACCUGUAGAGCCUUGGUUAUUUG [A5U A18C G113A A118U U131A] | -4.6
10 | GACCAAUUUUCCCUCAGAGCUCGAGAUCAUCUUCGGAUGCAGAGGAGGCAGGCUUCGGCGGCGCGAUAGCGCCAACGUCCUCAACCUCCAAUGCAUCCCACCACAUGAUGAUGCCUGAAGAGCCUUGGUUUUUUG [C8U G10U A27U U59C] | -3.06
11 | GACCAAUCUGCCCUCAGAGCUCGAGAACAUCUUCGGAAGCAGAGGAGGCAGGCUUCGGUGGCGCGAUAGCGCCAACGUCUUCAACCUCCAAUGCAUCCCACCACAUGAUGAUGCCUGAAGAGUCUUGGUUUUUUG [U38A C80U C123U] | -1.04
12 | GACCAAUCUGCCCUCAGAGCUCGAGAACAUCUUCGGAUGCAGAGUAGGCAGGCUUCGGUGGCGCGAUAGCGGCAACGUCCUCAACCUCCAAUGCAUCCCACCACAUGAUGAUGACUGAAGAGCCUUGGUUUUUUG [G45U C72G C114A] | -2.66
13 | GACCAAUCUGCCCUCAGAGCUCGAGAACAUUUUCGGGUGCAGAGGAGGCAGGCUUCGGUGGCGCGAUAUCGCCAACGUCCUCAACCUCCAAUGCAUCCCACCACAUGAUGAUGCCUGAAGAGCCUUGGUUUUUUG [C31U A37G G69U] | -3.72
14 | GACCAAUCUGCCCUCAGAGCUCGAGAACAUCUUCGGAUGCAGAGGAGGCAGGCUUCGGUGCCGCGAUAGCGCCAACGUCUUCAACCUCCAAUGCAUCCCACCACAUGAUGAUGCCUGAAGAGCCUUGGUUUUUUG [G61C C80U] | -5.08
15 | GACCAAUCUGCCCUCAGAGCUCGAGAAGAUCUUCGGAUGCAGAGGAGGCAGGCUUCGGUGGCGCGAUAGAGCCAACGUCCUCAACCUCCGAUGCAUCCCACCACAUGAUGAUGCCUUAAGAGCCUUGGUUUUUUG [C28G C70A A90G G117U] | -5.76
16 | GACCAAUUUGCCCUCAGAGCUCGAGAACAUCUUCGGAUGCAGAGGAAGCAGGCUUCGGUGGCGCGAUAGCGCCAACGUCCUCAACCUCCAAUGCAUCCCACCACAUGAUGAUGCCUGAAGAGCCUUGGUUUUUUG [C8U G47A] | -0.477
17 | GGCCAAUCUGCCCUCAGAGCUCGAGAACAUCUUCGGAUGCAGAGGAGGCAGGCUUCGGUGGCGCGAUAGCGCUAACGUCCUCAACCUCCAAUGCAUCCCACCACAUGAUGAUAGCUGAUGAGCCUGGGUUUUUUG [A2G C73U G113A C114G A119U U126G] | -5.02
18 | GACCAAUCUGCCCACAGAGCUCGAGAACAUCUUCGGAUGCAGAGGAAGCAGGCUUCGGUGGCGCGAUAGCGCCAACGUCCUCAACCUCCAAUGCAUCCCACAACAUGAUGAUGCCUGAAGCGCCUUGGUUUUUUG [U14A G47A C102A A121C] | -2.83
19 | GACCAAUCUGCCCUCAGAGCUCGAGAACUUCUUCGGAUGCAGAGGAGGCAGGCUUCGGUGGCGCGAUAGCGCGAACGUCCUCAACCUCCAAUGCAUCCCACCACAUGAUGAUGCCUGAAGAGCCUUGGUUUUUUG [A29U C73G] | -1.92
20 | GAGCAAUCUGCCCUCAGAGCUCGAGAACAUCUUCGAAUCCAGAGGAGGCAGGUUUCGGUGGCGCGAUAGCGCCAACGUCCUCAACCUCCAAUGCAUCCCACCACAUGAUGAUGCCUGAAGCGCCUUGGUUUUUUG [C3G G36A G39C C53U A121C] | -2.59
21 | GACCAAUCUGCCCUCAGAGCUCGAGAACAUCUUCGGCUGCAGAGGAGGCAGACUUCGGUGGCGCGAUAGCGCCAACGUCCUCCACCUCCAAUGCAUCCCACCACAUGAUGAUGCCCGAAGAGCCUUGGUUUUUUG [A37C G52A A83C U116C] | -2.17
